Results published in paper PMC5512577 (2016).

Molecular target: phosphodiesterase 6 delta subunit (PDE6δ), N-terminal histidine-tagged (UniProt O43924 1-150)
Experiment: FP; mantGppNHp-loaded Arl; stopped-flow

Chain of phosphodiesterase 6 delta subunit (PDE6δ), N-terminal histidine-tagged (O43924 whole entry, stated change not applied): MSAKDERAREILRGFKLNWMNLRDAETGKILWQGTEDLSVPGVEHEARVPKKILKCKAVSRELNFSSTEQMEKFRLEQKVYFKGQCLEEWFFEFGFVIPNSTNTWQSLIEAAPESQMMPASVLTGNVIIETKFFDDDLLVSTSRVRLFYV

koff [s⁻¹]	Binder
0.98	N-terminally truncated Arl2 (aa 17-178), bound to mantGppNHp (domain or fragment) LRLLMLGLDNAGKTTILKKFNGEDVDTISPTLGFNIKTLEHRGFKLNIWDVGGQKSLRSYWRNYFESTDGLIWVVDSADRQRMQDCQRELQSLLVEERLAGATLLIFANKQDLPGALSCNAIQEALELDSIRSHHWRIQGCSAVTGEDLLPGIDWLLDDISS
0.33	full-length Arl2, C-terminal histidine-tagged, bound to GppNHp or mantGppNHp (natural protein) MGLLTILKKMKQKERELRLLMLGLDNAGKTTILKKFNGEDVDTISPTLGFNIKTLEHRGFKLNIWDVGGQKSLRSYWRNYFESTDGLIWVVDSADRQRMQDCQRELQSLLVEERLAGATLLIFANKQDLPGALSCNAIQEALELDSIRSHHWRIQGCSAVTGEDLLPGIDWLLDDISSRVFTAD
